Measurements published in US20240117030A1 (Pfizer, published 2024).
Changes are numbered by the printed parent chain. Values belong to the binder of their own block, whether it stands above or below them.

Columns and labels:
Test in all cases: cell-based or functional assay
[1] = molecular target: T1, recombinant human IL-33 (wild type, Ser112-Thr270) (human, UniProt O95760 112-270)
T1 sequence (looked up): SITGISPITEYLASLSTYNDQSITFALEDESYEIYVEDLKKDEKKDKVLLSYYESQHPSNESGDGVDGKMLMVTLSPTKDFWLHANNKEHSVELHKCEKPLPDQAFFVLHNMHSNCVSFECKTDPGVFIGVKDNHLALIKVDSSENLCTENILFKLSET

human IL-4 = molecular target: T2, human IL-4 (human, UniProt P05112 25-153)
T2 sequence (looked up): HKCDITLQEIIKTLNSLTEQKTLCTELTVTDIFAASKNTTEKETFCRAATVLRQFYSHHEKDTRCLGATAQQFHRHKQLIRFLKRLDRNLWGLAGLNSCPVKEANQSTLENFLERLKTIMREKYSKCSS

human IL-13 = human IL-13 (human, UniProt P35225 35-146)
human IL-13, sequence (P35225 35-146 limits assumed): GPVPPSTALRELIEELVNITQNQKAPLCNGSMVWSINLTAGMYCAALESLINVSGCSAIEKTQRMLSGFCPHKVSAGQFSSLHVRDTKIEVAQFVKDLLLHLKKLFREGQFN

[2] = molecular target: T3, IL-33 (mm2), human IL-33 variant with all four cysteines changed to serine (human, UniProt O95760 112-270, limits assumed)
T3 sequence (looked up): T1 sequence (looked up) with C97S, C116S, C121S, C148S

a-IL-33 bioassay (WT IL33) IC50 (pM) [1]: 112 pM
a-hIL-4 bioassay IC50, pM) (human IL-4): 10.3 pM
a-hIL-13 bioassay (IC50, pM) (human IL-13): 9.01 pM
B1: IL13433-0006 (other)
heavy: EVQLVESGGGLVQPGGSLRLSCAASGFTFSSYAMSWVRQAPGKGLEWVASISSGDTTYYPDSVKGRFTISRDNAKNSLYLQMNSLRAEDTAVYYCARNEGYYFGLTLWGQGTLVTVSSASTKGPSVFPKAPSSKSTSGGTAALGCLVKDYFPEPVTVSWNSGALTSGVHTFPAVLQSSGLYSLSSSVTVPSSSLGTQTYICNVNHKPSNTKVDKKVEPKSCDKTHTCPPCPAPEAAGAPSVFLFPPKPKDTLMISRTPEVTCVVVDVSHEDPEVKFNWYVDGVEVHNAKTKPREEQYNSTYRVVSVLTVLHQDWLNGKEYKCKVSNKALPAPIEKTISKAKGQPREPQVCTLPPSREEMTKNQVSLWCLVKGFYPSDIAVEWESNGQPENNYKTTPPVLDSDGSFFLYSKLTVDKSRWQQGNVFSCSVMHEALHNHYTQKSLSLSPGK
chain 1: DIQMTQSPSSLSASVGDRVTITCKASQNINKHLDWYQQKPGKAPKLLIYFTNNLQTGVPSRFSGSGSGTDFTLTISSLQPEDFATYYCFQYNQGWTFGGGTKVEIKRTVAAPSVFIFPPSDEQLKSGTASVVCLLNNFYPREAKVQWKVDNALQSGNSQESVTEQDSKDSTYSLSSTLTLSKADYEKHKVYACEVTHQGLSSPVTKSFNRGECGGGGSEVTLRESGPALVKPTQTLTLTCTFSGFSLSNFGEGLSWIRQPPGKGLEWLAHIYWDDDKRYNPSLKSRLTISKDTSRNQVVLTMTNMDPVDTATYYCARRETVFYWYFDVWGQGTTVTVSSASTKGPSVFPEAPSSKSTSGGTAALGCLVKDYFPEPVTVSWNSGALTSGVHTFPAVLQSSGLYSLGSVVTVPSSSLGTQTYICNVNHKPSNTKVDKKVEPKSCDKTHTCPPCPAPEAAGAPSVFLFPPKPKDTLMISRTPEVTCVVVDVSHEDPEVKFNWYVDGVEVHNAKTKPREEQYNSTYRVVSVLTVLHQDWLNGKEYKCKVSNKALPAPIEKTISKAKGQPREPQVYTLPPCREEMTKNQVSLSCAVKGFYPSDIAVEWESNGQPENNYKTTPPVLDSDGSFFLVSKLTVDKSRWQQGNVFSCSVMHEALHNHYTQKSLSLSPGK
light 1: DIQMTQSPSSLSASVGDRVTITCKASESVDHFGWSLVHWYQQKPGKAPKLLIYRASNLESGVPSRFSGSGSGTDFTLTISSLQPEDFATYYCQQSNEDPWTFGGGTKVEIKRTVAAPSVFIFPPSDEQLKSGTASVSCLLNNFYPREAKVQWKVDNALQSGNSQESVTEQDSKDSTYSLDSTLTLSKADYEKHKVYACEVTHQGLSSPVTKSFNRGEC
light 2: B1 light 1 with E27Q, H31E, F32D, W34D, L36Y, V37M, H38N, R54A, W100P, D180K
chain 2: EVQLVESGGGLVQPGGSLRLSCAASGFTFSSYWMYWVRQAPGKGLEWVAAITPNAGEDYYPESVKGRFTISRDNAKNSLYLQMNSLRAEDTAVYYCARGHYYYTSYSLGYWGQGTLVTVSSASTKGPSVFPLAPSSKSTSGGTAALGCLVKDYFPEPVTVSWNSGALTSGVHTFPAVLQSSGLYSLSSVVTVPSSSLGTQTYICNVNHKPSNTKVDKKVEPKSC

a-hIL-4 bioassay IC50, pM) (human IL-4): 66.9 pM
a-hIL-13 bioassay (IC50, pM) (human IL-13): 20.3 pM
a-IL-33 bioassay cys mutant IL33) IC50 (pM) [2]: 182 pM
B2: IL13433-0607 (other)
heavy: B1 heavy with S53T, L107Q, Q110R, M429L, N435S
chain 1: B1 chain 1 with K24R, N28P, N30S, N280S, P281T, S285T, M650L, N656S
light 1: B1 light 1 with K24R, S56D, N57S, S60T
light 2: DIQMTQSPSSLSASVGDRVTITCRASQSVDEEGDSYMNWYQQKPGKAPKLLIYAASNLESGVPSRFSGSGSGTDFTLTISSLQPEDFATYYCQQSHKDPPTFGGGTKVEIKRTVAAPSVFIFPPSDEQLKSGTASVSCLLNNFYPREAKVQWKVDNALQSGNSQESVTEQDSKDSTYSLKSTLTLSKADYEKHKVYACEVTHQGLSSPVTKSFNRGEC
chain 2: B1 chain 2
